In patent US20160159919A1 (Chugai, published 2016):
Substitutions are numbered along the chain they refer to.

T1: hsEREG-His (mature human EREG-6His fusion protein) (human, UniProt O14944 30-108)
T1 sequence: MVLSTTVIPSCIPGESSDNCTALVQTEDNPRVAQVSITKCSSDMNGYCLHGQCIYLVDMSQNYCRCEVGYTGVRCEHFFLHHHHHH

B1: H240-G1d/L53-k (antibody, human IgG1, kappa, V domains shown)
VH: QDQLVQSGAEVKKPGASVKVSCKASGFNIKDTYIQWVRQAPGQGLEWMGRIDPLRKQTKYREKFEGRVTITADTSTNTAYMELSSLRSEDTAVYYCVRSGREFDYWGQGTLVTVSS
VL: DIQMTQSPSSLSASVGDRVTITCRASQDIHKYIAWYQQKPGQAPRLLIQYTSTLQPGVPSRFSGSGSGTDYTFTISSLQPEDIATYYCLQYDNLRTFGGGTKVEIKR
B2: H240-G1d/L73-k (antibody, human IgG1, kappa, V domains shown)
VH: B1 VH
VL: B1 VL with D92E, N93Q
B3: H206-G1d/L73-k (antibody, human IgG1, kappa, V domains shown)
VH: B1 VH with K13N, K56R, Y105F
VL: B1 VL with D92E, N93Q
B4: chimeric antibody EP27 (cH-G1/cL-k) (antibody, human IgG1, kappa, V domains shown)
VH: EDQLQQSGAELVKPGASVKLSCTASGFNIKDTYIQWVKLRPEQGLEWIGRIDPLNGNTKYVPKFQGKATITADTSSNTAYLQLSSLTSEDTAVYYCVRSGTLFDFWGQGTTLTVSS
VL: DIQMTQSPSSLSASLGGKVTITCKASQDIHKYIAWYQHKPGKGPRLLIQYTSTLQPGIPSRFSGSGSGRDYSFSISNLEPEDIATYYCLQYDNLRTFGGGTKLEIKR
notes: mouse EP27 variable regions with human IgG1 (G1) and kappa constant regions; also called chimeric EP27
B5: H87-G1d/LB-k (antibody, human IgG1, kappa, V domains shown)
VH: B1 VH with R55T, K56G, R61Q, R101T, E102S, Y105F
VL: B1 VL with R24K
B6: H133-G1d/LB-k (antibody, human IgG1, kappa, V domains shown)
VH: B1 VH with K56R, Q57N, R101T, E102R, Y105F
VL: B1 VL with R24K
B7: H205-G1d/L73-k (antibody, human IgG1, kappa)
heavy: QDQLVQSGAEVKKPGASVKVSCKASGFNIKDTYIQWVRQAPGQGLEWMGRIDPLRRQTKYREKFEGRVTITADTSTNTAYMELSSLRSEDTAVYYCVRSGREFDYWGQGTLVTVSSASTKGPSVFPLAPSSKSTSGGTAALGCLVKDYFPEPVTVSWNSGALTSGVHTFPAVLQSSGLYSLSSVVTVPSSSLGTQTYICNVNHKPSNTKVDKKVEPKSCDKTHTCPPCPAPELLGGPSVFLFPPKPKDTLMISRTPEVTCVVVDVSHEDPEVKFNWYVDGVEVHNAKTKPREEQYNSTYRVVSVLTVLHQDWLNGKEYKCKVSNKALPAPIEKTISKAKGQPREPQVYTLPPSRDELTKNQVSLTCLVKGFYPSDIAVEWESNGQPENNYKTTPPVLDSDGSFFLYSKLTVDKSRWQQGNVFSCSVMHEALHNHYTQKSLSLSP
light: DIQMTQSPSSLSASVGDRVTITCRASQDIHKYIAWYQQKPGQAPRLLIQYTSTLQPGVPSRFSGSGSGTDYTFTISSLQPEDIATYYCLQYEQLRTFGGGTKVEIKRTVAAPSVFIFPPSDEQLKSGTASVVCLLNNFYPREAKVQWKVDNALQSGNSQESVTEQDSKDSTYSLSSTLTLSKADYEKHKVYACEVTHQGLSSPVTKSFNRGEC
B8: H231-G1d/L73-k (antibody, human IgG1, kappa)
heavy: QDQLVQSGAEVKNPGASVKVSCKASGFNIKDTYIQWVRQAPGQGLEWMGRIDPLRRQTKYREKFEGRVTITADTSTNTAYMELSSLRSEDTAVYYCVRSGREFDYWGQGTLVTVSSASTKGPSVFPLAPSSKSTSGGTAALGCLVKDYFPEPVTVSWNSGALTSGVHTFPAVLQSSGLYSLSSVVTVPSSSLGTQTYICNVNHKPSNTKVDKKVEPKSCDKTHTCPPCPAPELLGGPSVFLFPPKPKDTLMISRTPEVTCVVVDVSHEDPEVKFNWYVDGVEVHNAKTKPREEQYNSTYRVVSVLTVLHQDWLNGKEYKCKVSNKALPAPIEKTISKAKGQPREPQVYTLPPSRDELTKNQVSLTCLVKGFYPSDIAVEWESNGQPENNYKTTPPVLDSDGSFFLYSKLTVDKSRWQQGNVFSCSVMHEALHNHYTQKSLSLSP
light: B7 light
B9: H206-G1d/L53-k (antibody, human IgG1, kappa, V domains shown)
VH: B1 VH with K13N, K56R, Y105F
VL: B1 VL

Target: T1, hsEREG-His (mature human EREG-6His …)
Assay: cell-based or functional assay

Row | IC50 (read off the curve), growth ratio of EGFR_BAF cells with hsEREG-His 2.5 ng/mL [µg/mL] | Binder
1 | ~0.4 | B1
2 | ~0.5 | B2
3 | ~0.8 | B3
4 | ~0.7 | B4

Target: T2, cynomolgus EREG (Biacore analyte) (cynomolgus monkey, UniProt O14944 63-108 (human entry), limits assumed)
T2 construct: also called cynomolgus monkey EREG; cEREG
Assay: SPR (Biacore T100), antibody captured on Protein A, EREG as analyte; KD for monkey EREG over KD for human EREG
Procedure: (§1) The affinity and association rate constant of an anti-EREG antibody for an antigen were measured by the single-cycle kinetics method of surface plasmon resonance assay using Biacore™-T100 (GE Healthcare Japan). HBS-EP+ (GE Healthcare Japan) was used for the running buffer, and an amine coupling kit (GE Healthcare Japan) was used to covalently bond Protein A to the CM5 chip (carboxymethyl dextran-coated chip). Each anti-EREG antibody was prepared so that approximately 350 RU will be captured by Protein A. Human EREG or cynomolgus EREG used as the analyte was prepared at 0, 0.7, 1.4, 2.8, 5.6, and 11.2 nM using HBS-EP+. Measurement was carried out by first allowing Protein A to capture the antibody solution, and then at a flow rate of 30 μL/min, successively injecting each of the 0, 0.7, 1.4, 2.8, 5.6, and 11.2 nM human EREG or cynomolgus EREG solutions for three minutes to allow reaction to take place. Then, the solution was switched to HBS-EP+, and the dissociation phase was measured for 15 minutes. After completion of the dissociation phase measurement, the sensor chip was washed with 25 mM NaOH and regenerated. The measurement at zero concentration was similarly carried out by allowing Protein A to capture the antibody solution, and performing three-minute HBS-EP+ injections successively for five times to allow reaction to take place, and then switching to HBS-EP+ to measure the dissociation phase for 15 minutes. After completion of the dissociation phase measurement, the sensor chip was washed with 25 mM NaOH and regenerated. A data analysis software exclusively for Biacore, Biacore T100 Evaluation Software Version 2.0.1, was used to perform kinetic analyses to calculate the association rate constant (kₐ), dissociation rate constant (kd), and the rate constant ratio from the obtained sensorgrams. To correct for the day-to-day differences in the measurement values, FIGS. 1 to 4 and Tables 16 and 19 show ratios based on taking the value of the control sample (cH-G1/cL-k) measured on the same day as 1.

T2 sequence (O14944 other isoform, or with tags, fused parts or gaps limits assumed): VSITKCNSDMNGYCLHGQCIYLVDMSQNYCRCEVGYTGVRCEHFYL

Row | cEREG KD (nM)/hEREG KD (nM) [ratio] | Binder
5 | 35.1 | B5
6 | 6.1 | B6
7 | 40.9 | B4

Target: T3, Human EREG (Biacore analyte) (human, UniProt O14944 63-108)
T3 construct: also called hEREG; human epiregulin
Assay: SPR (Biacore T100), antibody captured on Protein A, EREG as analyte, single-cycle kinetics
Procedure: as §1

Row | Kd [nM] | koff [s⁻¹] | kon [M⁻¹ s⁻¹] | Binder
8 | 0.15 | 0.0002 | 1.3e+06 | B5
9 | 0.19 | 7.5e-05 | 390000 | B7
10 | 0.14 | 8.7e-05 | 620000 | B8
11 | 0.27 | 0.00011 | 420000 | B1
12 | 0.17 | 0.00011 | 660000 | B9
13 | 0.22 | 7.7e-05 | 340000 | B2
14 | 0.13 | 7.4e-05 | 550000 | B3
15 | 0.2 | 0.00022 | 1.1e+06 | B4

Target: T2, cynomolgus EREG (Biacore analyte)
Assay: as above
Procedure: as §1

Row | Kd [nM] | koff [s⁻¹] | kon [M⁻¹ s⁻¹] | Binder
16 | 5.2 | 0.0045 | 860000 | B5
17 | 0.69 | 0.00026 | 370000 | B7
18 | 0.66 | 0.00028 | 420000 | B8
19 | 1.5 | 0.00089 | 610000 | B1
20 | 0.94 | 0.00061 | 640000 | B9
21 | 0.87 | 0.00029 | 340000 | B2
22 | 0.45 | 0.00023 | 500000 | B3
23 | 5.2 | 0.0052 | 990000 | B4

Target: T2, cynomolgus EREG (Biacore analyte)
Assay: SPR (Biacore T100); KD for monkey EREG over KD for human EREG
Procedure: as §1

Row | cEREG (nM)/hEREG (nM) [ratio] | Binder
24 | 35.1 | B5
25 | 3.1 | B7
26 | 3.5 | B8
27 | 5.4 | B1
28 | 5.2 | B9
29 | 3.6 | B2
30 | 3.4 | B3
31 | 40.9 | B4
